{"source": "patent US20160145328A1", "about": "(published 2016)", "binders": {"B1": {"name": "DP47 VH G52aD (other, name in Kabat numbering)", "VH": "QVQLLESGGGLVQPGGSLRLSCAASGFTFSSYAMSWVRQAPGKGLEWVSAISDSGGSTYYADSVKGRFTISRDNSKNTLYLQMNSLRAEDTAVYYCAKSYGAFDYWGQGTLVTVSS"}, "B2": {"name": "scFv HEL4 VH - linker - common VL (scFv)", "scFv": "QVQLLESGGGLVQPGGSLRLSCAASGFRISDEDMGWVRQAPGKGLEWVSSIYGPSGSTYYADSVKGRFTISRDNSKNTLYLQMNSLRAEDTAVYYCASALEPLSEPLGFWGQGTLVTVSSGGGGSGGGGSGGGGSTDIQMTQSPSSLSASVGDRVTITCRASQSISSYLNWYQQKPGKAPKLLIYAYSDLQSGVPSGFSGSGSGTDFTLTISSLQPEDFATYYCQQLMTHPTTFGQGTKVEIKR", "notes": "also called HEL4 (scFv)"}, "B3": {"name": "VHHEL_H04 (anti-HEL VH) (other)", "VH": "EVQLLESGGGLVQPGGSLRLSCAASGFRFDAEDMGWVRQAPGKGLEWVSSIYGPSGSTYYADSVKGRFTISRDNSKNTLYLQMNSLRAEDTAVYYCAKYTSPPQNHGFDYWGQGTLVTVSS", "notes": "Human VH single domain antibody from the Garvan-2 library"}, "B4": {"name": "scFv DP47 VH SYA31-33DED - linker - common VL (scFv)", "scFv": "QVQLLESGGGLVQPGGSLRLSCAASGFTFSDEDMSWVRQAPGKGLEWVSAISGSGGSTYYADSVKGRFTISRDNSKNTLYLQMNSLRAEDTAVYYCAKSYGAFDYWGQGTLVTVSSGGGGSGGGGSGGGGSTDIQMTQSPSSLSASVGDRVTITCRASQSISSYLNWYQQKPGKAPKLLIYAYSDLQSGVPSGFSGSGSGTDFTLTISSLQPEDFATYYCQQLMTHPTTFGQGTKVEIKR", "notes": "also called SYA31-33DED (scFv)"}, "B5": {"name": "VHHEL_G08 (anti-HEL VH) (other)", "VH": "EVQLLESGGGLVQPGGSLRLSCAASGFRISDEDMGWVRQAPGKGLEWVSYIDNNGYSTYYADSVKGRFTISRDNSKNTLYLQMNSLRAEDTAVYYCAKKQYGYQNGGFDYWGQGTLVTVSS"}, "B6": {"name": "VHPRLR_C02 (anti-hPRLR VH) (other)", "VH": "EVQLLESGGGLVQPGGSLRLSCAASGFRFADEDMGWVRQAPGKGLEWVSDISGDGYSTYYADSVKGRFTISRDNSKNTLYLQMNSLRAEDTAVYYCAKLPPVYLGGAFDYWGQGTLVTVSS", "notes": "as for B3"}, "B7": {"name": "HEL4 VH (other)", "VH": "QVQLLESGGGLVQPGGSLRLSCAASGFRISDEDMGWVRQAPGKGLEWVSSIYGPSGSTYYADSVKGRFTISRDNSKNTLYLQMNSLRAEDTAVYYCASALEPLSEPLGFWGQGTLVTVSS"}, "B8": {"name": "VHhTNF_G07 (anti-hTNF VH) (other, not shown: small tags and cut ends)", "VH": "B7 VH with A99K, L100E, E101D, P102Y, L103D, S104T, E105Y, P106N, L107W", "notes": "also called clone G07; anti-human TNF clone G07"}}, "key": {"[1]": {"target": "T1, protein A (UniProt P38507 37-477)", "T1 construct": "also called Protein A superantigen", "experiment": "Heat/Cool phage ELISA: phage-displayed VH, 80 C 10 min then 4 C 10 min, captured on coated protein A; signal as % of untreated sample", "protocol": "The aggregation-resistance of clones was analyzed by measuring retention of signal after heat incubation in a phage ELISA format (McCafferty et al., 1990; Jespers et al., 2004). Wells of a Nunc Maxisorp Immuno-plate were coated overnight with protein A at a concentration of about 5 μg/ml in phosphate-buffered saline (PBS). The plate was washed once with PBS and blocked with about 4% (w/v) milk powder diluted in PBS (MPBS). Single colonies were picked from agar plates and grown overnight in 2×TY medium (containing about 16 g/L tryptone; about 10 g/L yeast extract; about 5 g/L NaCl, pH 7.0) supplemented with about 15 μg/ml tetracycline shaking at about 30° C. Cells were removed by centrifugation and phages were biotinylated directly in the culture supernatant by adding biotin-PEO₄-N-hydroxysuccinimide (Pierce; about 50 μM final concentration). For heat selection, supernatant was first incubated at about 80° C. for about 10 min and then at about 4° C. for about 10 min. Supernatant was added to the blocked ELISA wells. After three washes with PBS, bound phage particles were detected using an Extravidin-HRP conjugate (Sigma) and 3,3′,5,5′-tetramethylbenzidine (TMB) substrate. Absorbance was calculated by subtracting measurements at 450 and 650 nm. […]"}, "[2]": {"target": "T1, protein A", "experiment": "Heat/Cool phage ELISA: phage-displayed scFv, 80 C 10 min then 4 C 10 min, captured on coated protein A; signal as % of untreated sample", "protocol": "(§1) The aggregation-resistance of clones was analyzed by measuring retention of signal after heat incubation in a phage ELISA format (McCafferty et al., 1990; Jespers et al., 2004). Wells of a Nunc Maxisorp Immuno-plate were coated overnight with protein A at a concentration of about 5 μg/ml in phosphate-buffered saline (PBS). The plate was washed once with PBS and blocked with about 4% (w/v) milk powder diluted in PBS (MPBS). Single colonies were picked from agar plates and grown overnight in 2×TY medium (containing about 16 g/L tryptone; about 10 g/L yeast extract; about 5 g/L NaCl, pH 7.0) supplemented with about 15 μg/ml tetracycline shaking at about 30° C. […] After three washes with PBS, bound phage particles were detected using an Extravidin-HRP conjugate (Sigma) and 3,3′,5,5′-tetramethylbenzidine (TMB) substrate. Absorbance was calculated by subtracting measurements at 450 and 650 nm.\nThe DP47-CDR1 mutants described above were paired with a common single variable light chain (VL; SEQ ID NO: 3) via a linker (SEQ ID NO: 4) in a scFv format (see the Materials and Methods section for full experimental details). […] Correctly folded scFv were captured by protein A ELISA and the absorbance signal of the treated sample was calculated as a percentage of the untreated sample."}, "[3]": {"target": "T2, Hen-Egg-Lysozyme (hen, UniProt P00698 19-147)", "T2 construct": "Biotinylated for Biacore; also called HEL", "T2 sequence (P00698 19-147)": "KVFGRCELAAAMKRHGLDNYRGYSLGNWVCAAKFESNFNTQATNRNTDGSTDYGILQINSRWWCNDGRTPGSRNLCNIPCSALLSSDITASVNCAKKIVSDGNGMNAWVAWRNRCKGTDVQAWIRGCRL", "experiment": "SPR (Biacore 2000), biotinylated antigen on streptavidin chip, purified VH", "protocol": "(§2) The affinities of VH clones were measured using surface plasmon resonance (using a Biacore2000 instrument; GE Healthcare). For this purpose, biotinylated antigen diluted in PBS was injected over a streptavidin (SA) sensor chip (Biacore AB). Serial dilutions of purified VH were injected over the flow cell containing the corresponding target antigen. Equilibrium dissociation constants were calculated using the BIAevaluation 4.1 software package (Biacore AB).\n(§3) The antigen-specific VH domains were expressed and purified. Affinity measurements were performed by surface plasmon resonance on a Biacore 2000 instrument."}, "[4]": {"target": "T1, protein A", "experiment": "Heat/Cool phage ELISA on protein A; signal after 80 C 10 min / 4 C 10 min as % of untreated sample", "protocol": "The aggregation-resistance of clones was analyzed by measuring retention of signal after heat incubation in a phage ELISA format (McCafferty et al., 1990; Jespers et al., 2004). Wells of a Nunc Maxisorp Immuno-plate were coated overnight with protein A at a concentration of about 5 μg/ml in phosphate-buffered saline (PBS). The plate was washed once with PBS and blocked with about 4% (w/v) milk powder diluted in PBS (MPBS). Single colonies were picked from agar plates and grown overnight in 2×TY medium (containing about 16 g/L tryptone; about 10 g/L yeast extract; about 5 g/L NaCl, pH 7.0) supplemented with about 15 μg/ml tetracycline shaking at about 30° C. Cells were removed by centrifugation and phages were biotinylated directly in the culture supernatant by adding biotin-PEO₄-N-hydroxysuccinimide (Pierce; about 50 μM final concentration). For heat selection, supernatant was first incubated at about 80° C. for about 10 min and then at about 4° C. for about 10 min. Supernatant was added to the blocked ELISA wells. After three washes with PBS, bound phage particles were detected using an Extravidin-HRP conjugate (Sigma) and 3,3′,5,5′-tetramethylbenzidine (TMB) substrate. Absorbance was calculated by subtracting measurements at 450 and 650 nm.\nAntigen-specific VH domains were selected from the Garvan-2 library by phage display against recombinant protein antigen. After selection, the domains were evaluated for aggregation-resistance using the “Heat/Cool” assay described in Example 1.2, and binding to either or protein A superantigen and or recombinant antigen."}, "[5]": {"target": "T3, human prolactin receptor (human, UniProt P16471 25-234)", "T3 construct": "also called hPRLR; PRLR (Prolactin Receptor)", "T3 sequence (looked up)": "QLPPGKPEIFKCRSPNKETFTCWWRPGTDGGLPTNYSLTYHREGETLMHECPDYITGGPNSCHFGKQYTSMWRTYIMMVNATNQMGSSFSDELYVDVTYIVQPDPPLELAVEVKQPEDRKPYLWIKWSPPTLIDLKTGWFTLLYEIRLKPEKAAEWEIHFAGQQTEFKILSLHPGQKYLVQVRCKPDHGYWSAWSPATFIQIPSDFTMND", "experiment": "SPR (Biacore 2000), biotinylated antigen on streptavidin chip, purified VH", "protocol": "as §2, §3"}, "[6]": {"target": "T1, protein A", "experiment": "Heat/Cool phage ELISA: phage-displayed VH, 80 C 10 min then 4 C 10 min, captured on coated protein A; signal as % of untreated sample", "protocol": "as §1\nTo identify additional residues in CDR1 that confer aggregation-resistance on VH, surface-exposed residues of DP47 between positions 26 to 35 (numbering according to the Kabat numbering system) were substituted for aspartic acid (D) or glutamic acid (E). […] Correctly folded VH were captured by protein A ELISA and the absorbance signal of the treated sample was calculated as a percentage of the untreated sample.", "remark": "listed apart in the source"}, "[7]": {"target": "T1, protein A", "experiment": "Heat/Cool phage ELISA: phage-displayed VH, 80 C 10 min then 4 C 10 min, captured on coated protein A; signal as % of untreated sample", "protocol": "The aggregation-resistance of clones was analyzed by measuring retention of signal after heat incubation in a phage ELISA format (McCafferty et al., 1990; Jespers et al., 2004). Wells of a Nunc Maxisorp Immuno-plate were coated overnight with protein A at a concentration of about 5 μg/ml in phosphate-buffered saline (PBS). The plate was washed once with PBS and blocked with about 4% (w/v) milk powder diluted in PBS (MPBS). Single colonies were picked from agar plates and grown overnight in 2×TY medium (containing about 16 g/L tryptone; about 10 g/L yeast extract; about 5 g/L NaCl, pH 7.0) supplemented with about 15 μg/ml tetracycline shaking at about 30° C. Cells were removed by centrifugation and phages were biotinylated directly in the culture supernatant by adding biotin-PEO₄-N-hydroxysuccinimide (Pierce; about 50 μM final concentration). […] After three washes with PBS, bound phage particles were detected using an Extravidin-HRP conjugate (Sigma) and 3,3′,5,5′-tetramethylbenzidine (TMB) substrate. Absorbance was calculated by subtracting measurements at 450 and 650 nm.\nVH domains were produced comprising negatively charged amino acids at positions 28 and/or 35 in CDR1 of DP47 and at least one other position, as set out in Table 7. Aggregation-resistance of the VH domains was assessed using the “Heat/Cool” assay as described in Example 1.2.", "remark": "listed apart in the source"}, "[8]": {"target": "T4, human tumor necrosis factor α (human, UniProt P01375 77-233)", "T4 construct": "also called hTNF; human TNF", "T4 sequence (P01375 77-233 limits assumed)": "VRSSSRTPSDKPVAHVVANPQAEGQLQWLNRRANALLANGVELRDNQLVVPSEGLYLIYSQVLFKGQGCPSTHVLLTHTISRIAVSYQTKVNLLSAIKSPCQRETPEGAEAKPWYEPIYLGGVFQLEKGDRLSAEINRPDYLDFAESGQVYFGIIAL", "experiment": "SPR (Biacore), biotinylated hTNF on streptavidin chip, purified VH injected from 4 µM down", "protocol": "The affinities of VH clones G07 (anti-hTNF; SEQ ID NO: 5) and G11 (anti-mIL-21; SEQ ID NO: 6) were measured using surface plasmon resonance (using a Biacore machine; GE Healthcare). For this purpose, biotinylated antigen diluted in PBS was injected over a streptavidin (SA) sensor chip (Biacore AB). Serial dilutions of purified VH (with concentrations ranging from about 0.125 to 4 μM) were injected at a flowrate of about 20 μl/min over the flow cell containing the corresponding target antigen. Equilibrium dissociation constants were calculated using the BIAevaluation 4.1 software package (Biacore AB).\nTwo clones selected for their binding to human tumour necrosis factor (hTNF) or mouse interleukin 21 (mIL-21) were isolated from the Garvan-I libraries, as detailed above (see Materials and Methods section). […] Biacore affinity measurements of anti-human TNF clone G07 (SEQ ID NO: 5) and anti-mouse IL-21 clone G11 (SEQ ID NO: 6) were performed. Serial dilutions of each purified protein, starting at 4 μM, were run on a streptavidin (SA) chip coated with biotinylated hTNF and mIL-21, respectively."}}, "note": "Changes are numbered by the printed parent chain. Like-named read-outs stand apart in the source and are kept apart here.", "data": [{"binder": "B1", "values": [{"measurement": "Retained binding to protein A (%)", "setting": "[1]", "result": 2.1, "unit": "%"}]}, {"binder": "B2", "values": [{"measurement": "Retained binding to protein A", "setting": "[2]", "result": 56, "unit": "%"}]}, {"binder": "B3", "values": [{"measurement": "Kd", "setting": "[3]", "result": 28, "unit": "nM"}, {"measurement": "Retained binding (%) after heating", "setting": "[4]", "result": 87.8, "unit": "%"}]}, {"binder": "B4", "values": [{"measurement": "Retained binding to protein A", "setting": "[2]", "result": 45, "unit": "%"}]}, {"binder": "B5", "values": [{"measurement": "Kd", "setting": "[3]", "result": 65, "unit": "nM"}, {"measurement": "Retained binding (%) after heating", "setting": "[4]", "result": 83.8, "unit": "%"}]}, {"binder": "B6", "values": [{"measurement": "Kd", "setting": "[5]", "result": "< 100", "unit": "nM"}, {"measurement": "Retained binding (%) after heating", "setting": "[4]", "result": 98.8, "unit": "%"}]}, {"binder": "B7", "values": [{"measurement": "Retained binding to protein A (%)", "setting": "[6]", "result": 80.2, "unit": "%"}, {"measurement": "Retained binding to protein A (%)", "setting": "[1]", "result": 80.8, "unit": "%"}, {"measurement": "Retained binding to protein A (%)", "setting": "[7]", "result": 87.7, "unit": "%"}, {"measurement": "Retained binding (%) after heating", "setting": "[4]", "result": 88.1, "unit": "%"}]}, {"binder": "B8", "values": [{"measurement": "Kd", "setting": "[8]", "result": 1860, "unit": "nM"}]}]}
